In publication PMC12428694, “A New β-Galactosidase from Pseudomonas tritici SWRI145 for Efficient Bioproduction of Galactooligosaccharides” (Foods, 2025):

Test system: O=[N+]([O-])c1ccccc1O[C@@H]1O[C@H](CO)[C@H](O)[C@H](O)[C@H]1O
Test: purified protein
Type: biochemical, Pseudomonas tritici
Conditions: 50 mM HEPES pH 7.5, 50 °C, 5 min, 0.3-60 mM ONPG, 1 mM Mg2+ probably present

## Pstr β-galactosidase (Pseudomonas tritici)
  Km: 3000 µM
  kcat: 643.98 s⁻¹
